Experimental findings from patent publication US8524454 (RESEARCH FOUNDATION OF STATE UNIVERSITY OF NEW YORK, dated 2013) are described below.

B1: holo-transcobalamin (recombinant human TC saturated with cobalamin) (ligand, UniProt P20062 19-427, looked up)
chain: EMCEIPEMDSHLVEKLGQHLLPWMDRLSLEHLNPSIYVGLRLSSLQAGTKEDLYLHSLKLGYQQCLLGSAFSEDDGDCQGKPSMGQLALYLLALRANCEFVRGHKGDRLVSQLKWFLEDEKRAIGHDHKGHPHTSYYQYGLGILALCLHQKRVHDSVVDKLLYAVEPFHQGHHSVDTAAMAGLAFTCLKRSNFNPGRRQRITMAIRTVREEILKAQTPEGHFGNVYSTPLALQFLMTSPMRGAELGTACLKARVALLASLQDGAFQNALMISQLLPVLNHKTYIDLIFPDCLAPRVMLEPAAETIPQTQEIISVTLQVLSLLPPYRQSISVLAGSTVEDVLKKAHELGGFTYETQASLSGPYLTSVMGKAAGEREFWQLLRDPNTPLLQGIADYRPKDGETIELRLVSW
notes: also called TC-Cbl; holo TC
B2: recombinant extracellular (EXC) domain of TCblR produced in NSO myeloma cells, cleaved from the Fc fusion protein (receptor)
chain: SPLSTPTSAQAAGPSSGSCPPTKFQCRTSGLCVPLTWRCDRDLDCSDGSDEEECRIEPCTQKGQCPPPPGLPCPCTGVSDCSGGTDKKLRNCSRLACLAGELRCTLSDDCIPLTWRCDGHPDCPDSSDELGCGTNEILPEGDATTMGPPVTLESVTSLRNATTMGPPVTLESVPSVGNATSSSAGDQSGSPTAY
notes: Fully glycosylated; also called EXC fragment; EXC-TCblR; not shown: some amino acids of the original Fc fusion protein remained in the cleaved fragment; they are not specified

Test [1] concerns the target T1, recombinant extracellular fragment of TCblR produced in HEK 293 cells (human, UniProt Q9NPF0 32-247).
T1 construct: Highly glycosylated; also called EXC fragment of TCblR; recombinant TCblR extracellular domain
T1 sequence: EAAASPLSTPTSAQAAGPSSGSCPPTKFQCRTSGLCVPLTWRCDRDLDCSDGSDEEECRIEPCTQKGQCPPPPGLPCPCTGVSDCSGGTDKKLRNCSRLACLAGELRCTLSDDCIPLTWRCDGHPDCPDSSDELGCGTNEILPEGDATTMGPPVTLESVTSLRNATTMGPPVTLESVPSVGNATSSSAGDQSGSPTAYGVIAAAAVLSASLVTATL
The experiment in a line: not described; extracellular fragment expressed in HEK 293 cells.

The target in test [2] is T2, transcobalamin receptor (TCblR) purified from human placenta (human, UniProt Q9NPF0 32-282).
T2 construct: also called TCR; purified TCblR
T2 sequence: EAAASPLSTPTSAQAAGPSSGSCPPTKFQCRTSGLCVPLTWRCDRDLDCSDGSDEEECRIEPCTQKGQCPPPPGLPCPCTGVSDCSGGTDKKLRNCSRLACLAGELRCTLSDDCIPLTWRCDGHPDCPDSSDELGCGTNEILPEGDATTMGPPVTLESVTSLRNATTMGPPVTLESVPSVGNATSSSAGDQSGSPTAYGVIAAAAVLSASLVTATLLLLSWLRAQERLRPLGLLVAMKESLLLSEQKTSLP
The test can be described thus: radiolabeled Cbl-TC binding to purified TCblR competed by unlabeled holo-TC or apo-TC (FIG. 12).

For test [3], the target named is B1. The experiment in a line: binding studies with the recombinant extracellular domain.

Turning to B1, the “fold higher affinity (holo-TC against the apo protein)” value in test [1] worked out at 28 fold. Besides, in test [2], the “fold difference in affinity (holo TC against apo TC)” value was determined as 28 fold.

On to B2, for which, in test [3], the binding result is given as “binds”.
